In patent publication US20190077860A1 (EISAI R AND D MANAGEMENT, published 2019):
Substitutions are numbered along the chain they refer to. In names and notes the source's numbering stands.

T1: human EphA1 extracellular region-SEAP-His protein (human, UniProt P21709 26-547)
T1 construct: extracellular domain; also called hEphA1-SEAP-His
T1 sequence (looked up): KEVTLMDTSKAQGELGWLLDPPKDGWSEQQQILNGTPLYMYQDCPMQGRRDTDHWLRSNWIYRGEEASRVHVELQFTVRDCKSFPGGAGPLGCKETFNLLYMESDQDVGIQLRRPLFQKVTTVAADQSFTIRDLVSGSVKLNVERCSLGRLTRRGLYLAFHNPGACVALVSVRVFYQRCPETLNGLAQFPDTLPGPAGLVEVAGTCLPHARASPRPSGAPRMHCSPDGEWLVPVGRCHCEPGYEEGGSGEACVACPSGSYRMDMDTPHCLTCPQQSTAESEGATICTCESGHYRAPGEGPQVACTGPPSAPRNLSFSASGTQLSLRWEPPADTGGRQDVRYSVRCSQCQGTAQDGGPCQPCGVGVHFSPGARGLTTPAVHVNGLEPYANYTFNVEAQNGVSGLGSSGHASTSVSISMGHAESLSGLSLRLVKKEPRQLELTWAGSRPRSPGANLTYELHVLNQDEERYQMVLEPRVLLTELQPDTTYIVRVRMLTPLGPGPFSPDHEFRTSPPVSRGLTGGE

T2: human EphA7 extracellular region-SEAP-His protein (human, UniProt Q15375 28-555)
T2 construct: extracellular domain; also called hEphA7-SEAP-His
T2 sequence (looked up): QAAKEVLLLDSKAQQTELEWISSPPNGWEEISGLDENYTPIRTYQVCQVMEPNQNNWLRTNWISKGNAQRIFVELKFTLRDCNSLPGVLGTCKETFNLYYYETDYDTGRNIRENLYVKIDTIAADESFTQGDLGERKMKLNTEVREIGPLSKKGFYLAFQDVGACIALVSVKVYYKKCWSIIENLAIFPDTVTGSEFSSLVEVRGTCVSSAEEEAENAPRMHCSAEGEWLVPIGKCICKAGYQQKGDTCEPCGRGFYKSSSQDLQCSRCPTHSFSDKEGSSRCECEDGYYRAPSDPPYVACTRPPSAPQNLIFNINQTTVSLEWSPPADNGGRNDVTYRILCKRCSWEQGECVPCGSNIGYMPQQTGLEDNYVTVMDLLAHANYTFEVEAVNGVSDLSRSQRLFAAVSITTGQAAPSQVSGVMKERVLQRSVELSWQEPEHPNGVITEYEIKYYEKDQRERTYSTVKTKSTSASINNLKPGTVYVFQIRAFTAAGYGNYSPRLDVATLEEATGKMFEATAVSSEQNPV

T3: human EphA8 extracellular region-SEAP-His protein (human, UniProt P29322 28-542)
T3 construct: extracellular domain; also called hEphA8-SEAP-His
T3 sequence (looked up): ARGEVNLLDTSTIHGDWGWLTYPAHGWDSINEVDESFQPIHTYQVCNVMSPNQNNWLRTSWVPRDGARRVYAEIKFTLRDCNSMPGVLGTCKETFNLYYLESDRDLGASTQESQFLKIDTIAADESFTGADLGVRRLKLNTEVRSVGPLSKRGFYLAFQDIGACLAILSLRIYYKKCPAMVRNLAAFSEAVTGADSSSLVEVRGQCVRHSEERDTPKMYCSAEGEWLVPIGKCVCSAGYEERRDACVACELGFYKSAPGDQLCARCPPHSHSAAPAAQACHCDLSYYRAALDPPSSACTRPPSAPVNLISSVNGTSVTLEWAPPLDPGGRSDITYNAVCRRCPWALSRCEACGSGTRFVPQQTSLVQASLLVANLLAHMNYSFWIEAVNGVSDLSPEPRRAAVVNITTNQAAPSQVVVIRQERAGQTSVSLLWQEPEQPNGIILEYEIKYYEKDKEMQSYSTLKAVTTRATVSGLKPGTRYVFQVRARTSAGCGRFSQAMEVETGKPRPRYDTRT

T4: human EphB3 extracellular region-SEAP-His protein (human, UniProt P54753 34-559)
T4 construct: extracellular domain; also called hEphB3-SEAP-His
T4 sequence (looked up): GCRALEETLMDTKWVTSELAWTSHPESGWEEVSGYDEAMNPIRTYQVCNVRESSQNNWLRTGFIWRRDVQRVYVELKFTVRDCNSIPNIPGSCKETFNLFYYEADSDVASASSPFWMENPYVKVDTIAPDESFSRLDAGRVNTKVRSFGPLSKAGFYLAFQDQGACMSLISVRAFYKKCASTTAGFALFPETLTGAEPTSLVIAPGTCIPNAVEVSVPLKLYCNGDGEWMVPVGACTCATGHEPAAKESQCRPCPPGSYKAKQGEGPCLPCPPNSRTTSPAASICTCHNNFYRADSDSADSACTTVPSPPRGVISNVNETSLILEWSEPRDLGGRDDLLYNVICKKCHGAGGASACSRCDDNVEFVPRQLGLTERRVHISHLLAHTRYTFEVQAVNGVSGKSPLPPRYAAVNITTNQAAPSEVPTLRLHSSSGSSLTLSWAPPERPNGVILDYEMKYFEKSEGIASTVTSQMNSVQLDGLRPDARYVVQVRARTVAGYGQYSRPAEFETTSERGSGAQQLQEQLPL

B1: humanized antibody No. 75 (antibody, human IgG1, kappa)
heavy: QVQLVQSGSELKKPGASVKVSCKASGYTFTDYSMHWVRQAPGQGLEWMGWINTETGEPTYAQGFTGRFVFSLDTSVSTAYLQISSLKAEDTAVYYCARIPLYYYGSRYWYFDVWGQGTTVTVSSASTKGPSVFPLAPSSKSTSGGTAALGCLVKDYFPEPVTVSWNSGALTSGVHTFPAVLQSSGLYSLSSVVTVPSSSLGTQTYICNVNHKPSNTKVDKRVEPKSCDKTHTCPPCPAPPAAAPSVFLFPPKPKDTLMISRTPEVTCVVVDVSHEDPEVQFNWYVDGVEVHNAKTKPREEQFNSTFRVVSVLTVVHQDWLNGKEYKCKVSNKGLPAPIEKTISKTKGQPREPQVYTLPPSREEMTKNQVSLTCLVKGFYPSDIAVEWESNGQPENNYKTTPPMLDSDGSFFLYSKLTVDKSRWQQGNVFSCSVMHEALHNHYTQKSLSLSPG
light: DIQMTQSPSSLSASVGDRVTITCRASENIYRNLAWYQQKPGKAPKLLVYAATNLADGVPSRFSGSGSGTDYTLTISSLQPEDFATYYCQHFWGTPWTFGQGTKVEIKRTVAAPSVFIFPPSDEQLKSGTASVVCLLNNFYPREAKVQWKVDNALQSGNSQESVTEQDSKDSTYSLSSTLTLSKADYEKHKVYACEVTHQGLSSPVTKSFNRGEC
notes: constant region: human IgG1 CH1 and hinge, human IgG2 CH2 and CH3 with V234A, G237A, no C-terminal Lys; human Ig kappa; also called L1-4/HA1
B2: humanized antibody No. 82 (antibody, human IgG1, kappa)
heavy: B1 heavy with E46K
light: B1 light with V48L, P80S
notes: human Ig kappa; also called L1-5/HA2
B3: humanized antibody No. 87 (antibody, human IgG1, kappa)
heavy: B1 heavy
light: B1 light with K45Q, V48L
notes: human Ig kappa; also called L1-6/HA1
B4: humanized antibody No. 86 (antibody, human IgG1, kappa)
heavy: B1 heavy with V2I, E46K, Q62D, G63D, T65K
light: B1 light with V48L, P80S
notes: human Ig kappa; also called L1-5/HK4
B5: humanized antibody No. 89 (antibody, human IgG1, kappa)
heavy: B1 heavy with V2I, E46K
light: B1 light with K45Q, V48L
notes: human Ig kappa; also called L1-6/HA4
B6: humanized antibody No. 90 (antibody, human IgG1, kappa)
heavy: B1 heavy with Q62D, G63D, T65K
light: B1 light with K45Q, V48L
notes: human Ig kappa; also called L1-6/HK1
B7: humanized antibody No. 78 (antibody, human IgG1, kappa)
heavy: B1 heavy with E46K, Q62D, G63D, T65K
light: B1 light
notes: human Ig kappa; also called L1-4/HK2
B8: humanized antibody No. 88 (antibody, human IgG1, kappa)
heavy: B1 heavy with E46K
light: B1 light with K45Q, V48L
notes: human Ig kappa; also called L1-6/HA2
B9: humanized antibody No. 85 (antibody, human IgG1, kappa)
heavy: B1 heavy with E46K, Q62D, G63D, T65K
light: B1 light with V48L, P80S
notes: human Ig kappa; also called L1-5/HK2
B10: humanized antibody No. 83 (antibody, human IgG1, kappa)
heavy: B1 heavy with V2I, E46K
light: B1 light with V48L, P80S
notes: human Ig kappa; also called L1-5/HA4
B11: humanized antibody No. 84 (antibody, human IgG1, kappa)
heavy: B1 heavy with Q62D, G63D, T65K
light: B1 light with V48L, P80S
notes: human Ig kappa; also called L1-5/HK1
B12: humanized antibody No. 77 (antibody, human IgG1, kappa)
heavy: B1 heavy with Q62D, G63D, T65K
light: B1 light
notes: human Ig kappa; also called L1-4/HK1
B13: humanized antibody No. 81 (antibody, human IgG1, kappa)
heavy: B1 heavy
light: B1 light with V48L, P80S
notes: human Ig kappa; also called L1-5/HA1
B14: humanized antibody No. 91 (antibody, human IgG1, kappa)
heavy: B1 heavy with E46K, Q62D, G63D, T65K
light: B1 light with K45Q, V48L
notes: human Ig kappa; also called L1-6/HK2

Each binder was assayed against T1, human EphA1 extracellular … (assay: ELISA).

Binder	A450 as % of hEphA4-SEAP-His [%]
B1	4.7
B2	5.4
B3	5.3
B4	5.9
B5	5.5
B6	5.1
B7	6.6
B8	5.8
B9	5
B10	5.7
B11	5.2
B12	4.5
B13	4.4
B14	5.8

The binders below were run against T5, human EphA5 extracellular region-SEAP-His protein (human, UniProt P54756 25-573) (assay: ELISA).
T5 construct: extracellular domain; also called hEphA5-SEAP-His
T5 sequence (P54756 25-573): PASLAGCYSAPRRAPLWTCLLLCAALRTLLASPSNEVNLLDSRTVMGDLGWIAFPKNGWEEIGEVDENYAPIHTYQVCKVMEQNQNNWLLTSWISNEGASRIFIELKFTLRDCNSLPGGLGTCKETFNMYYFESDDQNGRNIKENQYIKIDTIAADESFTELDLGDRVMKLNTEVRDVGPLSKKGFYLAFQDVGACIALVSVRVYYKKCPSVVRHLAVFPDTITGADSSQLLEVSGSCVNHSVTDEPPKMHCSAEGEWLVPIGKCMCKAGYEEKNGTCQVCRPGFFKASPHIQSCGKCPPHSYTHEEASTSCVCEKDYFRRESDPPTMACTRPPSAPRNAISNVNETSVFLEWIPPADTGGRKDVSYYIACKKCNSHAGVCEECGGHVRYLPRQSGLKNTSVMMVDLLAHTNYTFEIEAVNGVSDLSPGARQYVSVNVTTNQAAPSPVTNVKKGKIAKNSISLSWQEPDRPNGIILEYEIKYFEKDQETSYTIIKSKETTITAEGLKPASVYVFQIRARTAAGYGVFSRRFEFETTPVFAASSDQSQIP

Binder	A450 as % of hEphA4-SEAP-His [%]
B1	4.7
B2	6.5
B3	5.4
B4	5.7
B5	5.8
B6	5.1
B7	5.1
B8	5.9
B9	5
B10	5.8
B11	5
B12	4.4
B13	4.9
B14	6.4

The binders below were run against T2, human EphA7 extracellular … (assay: ELISA).

Binder	A450 as % of hEphA4-SEAP-His [%]
B1	4.7
B2	5.4
B3	5.3
B4	5.6
B5	5.4
B6	4.9
B7	5
B8	6
B9	4.8
B10	5.5
B11	4.8
B12	4.3
B13	5.2
B14	5.6

These binders were tested against T3, human EphA8 extracellular … (assay: ELISA).

Binder	A450 as % of hEphA4-SEAP-His [%]
B1	4.8
B2	5.8
B3	5.7
B4	5.7
B5	5.7
B6	5.4
B7	5.4
B8	6.2
B9	5.5
B10	6
B11	5.3
B12	4.8
B13	5.2
B14	6.2

Each binder was assayed against T4, human EphB3 extracellular … (assay: ELISA).

Binder	A450 as % of hEphA4-SEAP-His [%]
B1	4.7
B2	5.6
B3	5.5
B4	5.9
B5	5.7
B6	5.1
B7	5.2
B8	6.3
B9	5.2
B10	5.7
B11	4.8
B12	4.6
B13	4.9
B14	7

The binders below were run against T6, human EphA4 extracellular region-SEAP-His protein (human, UniProt P54764 20-547) (assay: ELISA).
T6 construct: also called hEphA4-SEAP-His
T6 sequence (P54764 20-547): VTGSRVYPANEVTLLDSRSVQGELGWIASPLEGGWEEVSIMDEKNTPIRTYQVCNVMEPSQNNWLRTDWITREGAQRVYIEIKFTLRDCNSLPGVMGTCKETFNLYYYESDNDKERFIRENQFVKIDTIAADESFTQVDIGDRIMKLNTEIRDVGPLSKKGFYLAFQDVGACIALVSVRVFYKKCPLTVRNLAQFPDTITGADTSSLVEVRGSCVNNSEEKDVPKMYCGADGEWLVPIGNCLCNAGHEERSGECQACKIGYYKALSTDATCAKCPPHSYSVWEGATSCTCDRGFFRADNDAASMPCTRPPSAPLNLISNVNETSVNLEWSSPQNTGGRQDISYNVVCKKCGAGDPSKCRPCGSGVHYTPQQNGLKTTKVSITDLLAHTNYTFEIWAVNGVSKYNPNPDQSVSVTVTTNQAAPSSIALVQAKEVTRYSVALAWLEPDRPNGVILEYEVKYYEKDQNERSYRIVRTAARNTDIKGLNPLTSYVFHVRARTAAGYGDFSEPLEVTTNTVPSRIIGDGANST

Binder	A450 as % of hEphA4-SEAP-His [%]
B1	100
B2	100
B3	100
B4	100
B5	100
B6	100
B7	100
B8	100
B9	100
B10	100
B11	100
B12	100
B13	100
B14	100
